According to article PMC546161:

Assays:
[1] = target: His-Cdt1(193–447) (Xenopus) (UniProt Q9I9A7); experiment: SEC + other: glycerol gradient sedimentation
[2] = target: His-Cdt1(193–447) (Xenopus) (UniProt Q9I9A7); experiment: Coomassie densitometry of the purified complex on SDS-PAGE

UniProt Q9I9A7, sequence (Q9I9A7 193-447): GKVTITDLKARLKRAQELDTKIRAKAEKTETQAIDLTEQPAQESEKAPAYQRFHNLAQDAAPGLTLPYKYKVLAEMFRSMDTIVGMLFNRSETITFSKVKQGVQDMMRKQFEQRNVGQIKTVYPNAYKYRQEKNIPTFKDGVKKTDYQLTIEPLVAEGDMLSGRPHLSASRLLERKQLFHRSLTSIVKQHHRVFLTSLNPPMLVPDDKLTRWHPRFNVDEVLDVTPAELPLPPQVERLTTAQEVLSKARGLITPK

## mini-geminin (residues 87–168), S-tagged (domain or fragment)
[1]
  stoichiometry N (mini-geminin per Cdt1(193–447)): 2
[2]
  stoichiometry N (mini-geminin per Cdt1(193–447)): 1.9
